Reference: publication PMC4125095, “Arabidopsis miR171-Targeted Scarecrow-Like Proteins Bind to GT cis-Elements and Mediate Gibberellin-Regulated Chlorophyll Biosynthesis under Light Conditions”

T1: SCL27 (His-SCL27) (Arabidopsis thaliana) (UniProt Q7XJM8)
T1 sequence: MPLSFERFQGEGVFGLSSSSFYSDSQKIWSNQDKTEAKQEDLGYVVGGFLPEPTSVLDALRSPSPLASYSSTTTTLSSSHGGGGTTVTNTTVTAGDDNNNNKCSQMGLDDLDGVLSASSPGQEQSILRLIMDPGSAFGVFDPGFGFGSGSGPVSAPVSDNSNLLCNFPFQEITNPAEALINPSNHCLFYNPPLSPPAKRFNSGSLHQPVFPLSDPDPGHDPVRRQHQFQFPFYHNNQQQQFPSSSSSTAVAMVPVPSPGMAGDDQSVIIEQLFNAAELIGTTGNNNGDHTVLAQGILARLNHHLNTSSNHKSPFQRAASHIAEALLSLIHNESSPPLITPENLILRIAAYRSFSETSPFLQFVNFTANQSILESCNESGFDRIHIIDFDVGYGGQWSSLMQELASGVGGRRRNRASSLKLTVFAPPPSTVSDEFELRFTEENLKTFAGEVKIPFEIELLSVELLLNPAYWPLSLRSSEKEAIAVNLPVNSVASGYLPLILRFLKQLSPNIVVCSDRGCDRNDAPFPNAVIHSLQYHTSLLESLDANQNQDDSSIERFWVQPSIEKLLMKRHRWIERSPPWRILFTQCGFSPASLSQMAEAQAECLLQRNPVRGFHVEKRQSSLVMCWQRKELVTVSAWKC

T2: SCL27 (His-SCL27) (Arabidopsis thaliana, UniProt Q7XJM8 1-640)
T2 sequence: T1 sequence

B1: M (62-bp mutated GT element fragment) (dsDNA)
DNA 1: CCCGGGGAAAAGAGATGAAGTAGAAGAACCCGGGAAAATAAAATAGAGGCAAAAATCCCGGG
DNA 2: CCCGGGATTTTTGCCTCTATTTTATTTTCCCGGGTTCTTCTACTTCATCTCTTTTCCCCGGG
B2: W (62-bp GT element fragment) (dsDNA)
DNA 1: GGAAAAGAAAAGAGATGAAGTAGAAGAAGAAAATAAAATAAAATAGAGGCAAAAATGGAAAT
DNA 2: ATTTCCATTTTTGCCTCTATTTTATTTTATTTTCTTCTTCTACTTCATCTCTTTTCTTTTCC

What was measured:
[1] = target: T1, SCL27 (His-SCL27) (Arabidopsis thaliana); assay: EMSA; details: 1 nM Cy5-DNA, 20 uL binding buffer (composition not given, ref 60), 30 C 20 min; 6% native PAGE, 0.5x TBE, 4 C
SCL27 (His-SCL27) = target: T2, SCL27 (His-SCL27); assay: EMSA; 1 nM probe; 1 nM Cy5-DNA, 20 uL binding buffer (composition not given, ref 60), 30 C 20 min; 6% native PAGE, 0.5x TBE, 4 C; details: protein: recombinant, tags: His (pET28b)

Molecule	binding [1]	also measured
AGCCAGTGGCGATAAGCCTGTTATAGGCATATGAACAAGACAATGGAGGAGGAGGAGGAGATGGTCTAGAAACCGTGACGACGGAGGAGGAAAAGAAAAGAGATGAAGTAGAAGAAGAAAATAAAATAAAATAGAGGCAAAAATGGAAATTTTCATTGGAATTTTGCAACTTTTAGAAATTGTAGAAGATGAAGAGAGCTGTGTGATCCAAAAGTGCTTATCGCCACTGGCT (double strand) [PORC promoter fragment III]	binds	–
AGCCAGTGGCGATAAGGATTAAAGAAACGGGTGGAATACACAAGAACAATGTATATGCAAGATTGCAGTGGTGTCGTTGATTACTCTCAATTTGATGATAAGATTCAAATTTGATATGAGTTTGGAGAAGAAGAAGATGACGAAGAGATCATTACTTGGCGATGAGACGAACAAGCAGGAAAGTATTGCCTACGCTTCCTGAACTTCATGAGATGCTTATCGCCACTGGCT (double strand) [PORC promoter fragment I]	no binding	–
B1	–	binding result (SCL27 (His-SCL27)): no binding
B2	–	binding result (SCL27 (His-SCL27); three G(A/G)(A/T)AA(A/T) GT elements, mutant): binds
